This is an account of results in patent US20180043006A1 (UNIVERSITY OF VIRGINIA PATENT FOUNDATION, published 2018).

Experiment [1] addresses T1, HLA-DR molecule DRB1*0101 (human).
T1 construct: Used as a PE-conjugated peptide/MHCII tetramer assembled by a cited method
Kind of experiment: peptide displayed on HLA-DR tetramer (TGEM).

Experiment [2] has as its target T2, HLA-DR molecule DRB1*0701 (human).
T2 construct: Used as a PE-conjugated peptide/MHCII tetramer assembled by a cited method
Kind of experiment: peptide displayed on HLA-DR tetramer (TGEM).

Experiment [3] addresses T3, HLA-DR molecule DRB1*0401 (human).
T3 construct: Used as a PE-conjugated peptide/MHCII tetramer assembled by a cited method
Briefly: peptide displayed on HLA-DR tetramer, ex vivo staining.

Experiment [4] addresses T3, HLA-DR molecule DRB1*0401. Kind of experiment: peptide displayed on HLA-DR tetramer, ex vivo staining of PBMCs.
Text: Biologically relevant pMHCII complexes were identified by tetramer-guided epitope mapping (TGEM). This involved 2 steps: First, PBMC cultures established from subjects with known HLA-DR types were stimulated with RV peptide pools derived from VP1, VP2, or VP4, and then stained with pMHCII tetramer pools composed of HLA-DR molecules corresponding to those expressed in the test subject; Second, positive signals were de-convoluted by repeating and staining with single-peptide tetramers.
All experiments were performed in subjects expressing HLA-DR molecules corresponding to the selected tetramer. Precursor frequencies of circulating tetramer+ cells were then calculated by established methods [43]. Tetramer+ cells were phenotyped for surface markers by staining PBMCs with PE-conjugated tetramers, labeling with anti-PE magnetic beads, enriching with an AutoMACS separator (Miltenyi Biotec, Auburn, Calif., USA), and then counterstaining for surface markers. […] For simplicity, identified RV-A16 peptide epitopes were given a numerical designation.

B1: RV-A16 VP1P23 peptide epitope (peptide)
peptide: PRFSLPFLSIASAYYMFYDG
notes: 20mer from the overlapping RV-A16 VP1 peptide library, loaded on HLA-DR tetramers
For the molecule B1, the binding result in experiment [1] and in experiment [2] was “binds” in each case.

As to AQVRRKFEMFTYVRFDSEIT [RV-A39 VP1105-124 peptide epitope], the binding result in experiment [3] is on record as “binds”.

As to PHQFINLRSNNSATLIVPYV [RV-A16 VP2P24 peptide epitope], in experiment [1], the binding result was “binds”.

B2: RV-A16 VP2P21 peptide epitope (peptide)
peptide: NEKQPSDDNWLNFDGTLLGN
notes: 20mer from the overlapping RV-A16 VP2 peptide library, loaded on HLA-DR tetramers
For B2, the binding result in experiment [4] is “binds”.

B3: RV-A39 VP2169-188 peptide epitope (peptide)
peptide: SDDNWLNFDGTLLGNLLIFP
notes: Residues 169-188 of RV-A39 VP2; also called RV-A39 VP2 peptide
For the molecule B3, in experiment [3], the binding result is on record as “binds”.
